From patent US20190338018A1 come the findings set out here.

The target in this assay is DNABII protein tips. In words: cell-based or functional assay.

B1: mAb mIhfB4NTHI Fab (murine, clone 12E6.F8.D12.D5) (Fab, V domains shown)
VH: EVQLQESGAELVRSGASVKLSCTASGFNIKDYYMHWVKQRPEQGLEWIGWIDPENDDTEYVPKFQGKASMTADTSSNTAYLQLSSLTSEDTAVYYCTELGAYWGQGTLV
VL: not shown
On to B1, for which the Reduction in Biomass (in vitro vs NTHI biofilms, 171 nM, COMSTAT2, relative to nonspecific murine IgG1) amounted to 77% and the reduction in biomass of NTHI 86-028NP biofilm in vitro, relative to mAb IgG1 Fab control was 74%.

B2: mAb mIhfB4NTHI (murine monoclonal IgG, clone 12E6.F8.D12.D5) (antibody, V domains shown)
VH: EVQLQESGAELVRSGASVKLSCTASGFNIKDYYMHWVKQRPEQGLEWIGWIDPENDDTEYVPKFQGKASMTADTSSNTAYLQLSSLTSEDTAVYYCTELGAYWGQGTLV
VL: not shown
Molecule B2 displayed a Reduction in Biomass (in vitro vs NTHI biofilms, 171 nM, COMSTAT2, relative to nonspecific murine IgG1) of 71%.
